Blank lines part the entries; values can stand above or below the binder they belong to.
Key:
[1] = target: PleC-CcaS chimeric histidine kinase (chimera AB-1) (Caulobacter crescentus | not stated)
[2] = target: T1, PleC PAS AB-HK (Caulobacter crescentus)
T1 sequence (P37894 whole entry, looked up): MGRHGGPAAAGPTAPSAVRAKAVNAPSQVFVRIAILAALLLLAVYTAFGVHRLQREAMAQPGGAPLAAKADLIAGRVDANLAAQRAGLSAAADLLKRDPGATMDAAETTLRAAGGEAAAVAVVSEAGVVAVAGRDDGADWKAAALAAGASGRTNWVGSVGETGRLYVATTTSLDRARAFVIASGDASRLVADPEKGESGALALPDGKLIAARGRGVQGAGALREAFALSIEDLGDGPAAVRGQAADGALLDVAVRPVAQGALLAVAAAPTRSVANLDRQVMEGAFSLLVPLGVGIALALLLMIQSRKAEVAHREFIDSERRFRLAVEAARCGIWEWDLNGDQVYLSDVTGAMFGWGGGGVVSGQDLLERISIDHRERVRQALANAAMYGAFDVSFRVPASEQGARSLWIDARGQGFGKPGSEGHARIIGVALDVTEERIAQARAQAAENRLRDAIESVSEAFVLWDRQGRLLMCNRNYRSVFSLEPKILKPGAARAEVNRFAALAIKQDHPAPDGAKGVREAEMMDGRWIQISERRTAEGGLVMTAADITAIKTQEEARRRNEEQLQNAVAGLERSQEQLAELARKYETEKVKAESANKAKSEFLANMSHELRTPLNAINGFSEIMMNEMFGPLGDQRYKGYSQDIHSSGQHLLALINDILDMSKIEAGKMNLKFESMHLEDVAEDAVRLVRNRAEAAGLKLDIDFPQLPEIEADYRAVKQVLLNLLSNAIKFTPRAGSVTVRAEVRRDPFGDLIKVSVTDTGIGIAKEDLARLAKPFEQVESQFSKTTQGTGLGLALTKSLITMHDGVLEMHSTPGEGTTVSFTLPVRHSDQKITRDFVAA

[3] = target: PleC-CcaS chimeric histidine kinase (chimera AB-1) (Caulobacter crescentus | not stated); remark: listed apart in the source

mCherry expression from the cpcG2 promoter through PleC-CcaS and CcaR in E. coli, relative to the empty vector control [1]: 10 fold
B1: YFP-PodJ (full-length PodJL) (natural protein)
chain: MTAASPWSVKGIDPKAREVAKDLARRSGMTLGEWLNRMIIEGDGQTADPRLAGDDVPNRAYLEIVKDDAPPRIEIAEHPADEVGRVALALDRLTQRIEAAEGRNAAAITGIDHSVRDALTRLGASEREQIAVAARFEGAVDELKTEQARATERLRRIESEAAGPRSAEALRALEGALGKVAGHLYEGEARTREAIATLEAKLNQQSSGDPSALVEAVVARLGERLEAAETRTSDALRELGASFQALDQRLGAVETANPATGVQEGLDSLAATLTQKMEAARLEMAAKLRESADGRFDRMERKLGEMAAHVQAAEQRSAQAIERMGREIVGVADAFNRRVHAAESRNASAIEQVGGEVARIAASVEHKLNRADSVQAQALEKLGGEIARITEKLAERIGSAERRNALAIDDVGEQVARVTERLNQRHERSSQELVDRIRQSEERTLRMLEEAREKIDSRLSEAQRKLEAAPPSPPPAQAPAPVATAQRPVPPAASPFEDNYFSQAASFSTSEDEADAFDAPPAPARSFEVAEFPAAEPEEPAFAHDDYAIADGFEPESPRYEVEPEVSDFAPAEPSRPMSTRDIIEQARAAARAAAASEGKGGKAKSAKKEKASKASGSLFSGFGGFSTKKSKARLGATVTTALVVFAAAGALGAGVGGLLLLNTDDGNNSPSRVAQAIAGRKADVEVNGPEADTTPGAPRAAVALTTGKVVPAEVEAPAAPPTNEAKALFEDAVRKIESGDRSGVELLKRAANGGYPAAQFYLSKMYEGGKNGVKVDMAEARRWSERAANGGDPRAMHNLALYYFKGEGGPRNSTTAASWFRKAADMGLVDSQFNLAQLYESGLGVSQNPAEAYKWYVIAGRAGDSTARGRATALRSQLTAEAQQTADRSALAFRPQTQVQTASLSSAAPAAANANLGVAQRVLSQLGYYQGPRDGVSSPALRMAIAAYQRDQGLPPTGSVDAETLNRLSVYAR

ADP production IC50 (coupled enzyme assay of PleC PAS AB-HK) relative to that of PodJ(1–635) [2]: 2 fold
B2: PodJ(250–635) (domain or fragment)
chain: LGAVETANPATGVQEGLDSLAATLTQKMEAARLEMAAKLRESADGRFDRMERKLGEMAAHVQAAEQRSAQAIERMGREIVGVADAFNRRVHAAESRNASAIEQVGGEVARIAASVEHKLNRADSVQAQALEKLGGEIARITEKLAERIGSAERRNALAIDDVGEQVARVTERLNQRHERSSQELVDRIRQSEERTLRMLEEAREKIDSRLSEAQRKLEAAPPSPPPAQAPAPVATAQRPVPPAASPFEDNYFSQAASFSTSEDEADAFDAPPAPARSFEVAEFPAAEPEEPAFAHDDYAIADGFEPESPRYEVEPEVSDFAPAEPSRPMSTRDIIEQARAAARAAAASEGKGGKAKSAKKEKASKASGSLFSGFGGFSTKKSKARL

mCherry expression from the cpcG2 promoter through PleC-CcaS and CcaR in E. coli [3]: 3 fold
B3: PodJ(250–635) expressed in E. coli (domain or fragment)
chain: B2 chain

Reference: article PMC8980812
